From US20220056111A1 (YUROGEN BIOSYSTEMS, published 2022)

T1: HcoV-NL63 S protein (HcoV-NL63, UniProt Q6Q1S2 19-1296)
T1 construct: also called hCov-NL63 S1
T1 sequence: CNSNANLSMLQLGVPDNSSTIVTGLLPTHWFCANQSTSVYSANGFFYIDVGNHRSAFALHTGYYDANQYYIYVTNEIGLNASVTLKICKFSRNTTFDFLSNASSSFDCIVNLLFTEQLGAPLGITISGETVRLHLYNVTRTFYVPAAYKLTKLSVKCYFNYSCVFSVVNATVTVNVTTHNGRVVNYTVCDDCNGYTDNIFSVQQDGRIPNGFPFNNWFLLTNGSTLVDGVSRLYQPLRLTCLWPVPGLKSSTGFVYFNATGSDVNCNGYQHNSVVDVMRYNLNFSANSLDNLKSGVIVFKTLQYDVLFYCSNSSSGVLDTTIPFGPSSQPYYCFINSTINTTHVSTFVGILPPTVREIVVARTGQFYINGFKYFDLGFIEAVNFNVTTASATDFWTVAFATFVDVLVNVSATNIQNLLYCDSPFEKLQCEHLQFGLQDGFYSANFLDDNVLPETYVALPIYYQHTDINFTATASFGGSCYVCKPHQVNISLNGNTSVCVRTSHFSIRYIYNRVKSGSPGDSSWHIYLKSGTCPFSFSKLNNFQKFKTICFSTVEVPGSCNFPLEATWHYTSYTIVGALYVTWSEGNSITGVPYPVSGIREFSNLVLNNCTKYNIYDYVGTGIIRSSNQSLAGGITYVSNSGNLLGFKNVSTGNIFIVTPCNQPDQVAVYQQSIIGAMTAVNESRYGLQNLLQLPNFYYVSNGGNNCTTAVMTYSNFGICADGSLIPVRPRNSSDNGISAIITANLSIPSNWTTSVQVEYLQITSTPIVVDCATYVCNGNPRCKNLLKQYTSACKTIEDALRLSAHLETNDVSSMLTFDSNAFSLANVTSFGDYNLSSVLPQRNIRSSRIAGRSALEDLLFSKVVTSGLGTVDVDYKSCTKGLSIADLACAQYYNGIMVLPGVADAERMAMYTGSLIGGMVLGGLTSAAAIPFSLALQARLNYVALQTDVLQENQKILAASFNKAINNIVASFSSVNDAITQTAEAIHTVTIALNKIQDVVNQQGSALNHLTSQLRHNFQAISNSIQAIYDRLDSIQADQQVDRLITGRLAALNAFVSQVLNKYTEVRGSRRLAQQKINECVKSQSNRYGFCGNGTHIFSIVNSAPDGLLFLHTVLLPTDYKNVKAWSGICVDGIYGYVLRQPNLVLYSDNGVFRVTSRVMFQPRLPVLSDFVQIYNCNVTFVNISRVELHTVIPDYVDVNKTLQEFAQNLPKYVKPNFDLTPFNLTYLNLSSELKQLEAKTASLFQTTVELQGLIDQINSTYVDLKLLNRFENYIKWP

T2: HcoV-OC43 S protein (HcoV-OC43, UniProt P36334 14-1297)
T2 sequence: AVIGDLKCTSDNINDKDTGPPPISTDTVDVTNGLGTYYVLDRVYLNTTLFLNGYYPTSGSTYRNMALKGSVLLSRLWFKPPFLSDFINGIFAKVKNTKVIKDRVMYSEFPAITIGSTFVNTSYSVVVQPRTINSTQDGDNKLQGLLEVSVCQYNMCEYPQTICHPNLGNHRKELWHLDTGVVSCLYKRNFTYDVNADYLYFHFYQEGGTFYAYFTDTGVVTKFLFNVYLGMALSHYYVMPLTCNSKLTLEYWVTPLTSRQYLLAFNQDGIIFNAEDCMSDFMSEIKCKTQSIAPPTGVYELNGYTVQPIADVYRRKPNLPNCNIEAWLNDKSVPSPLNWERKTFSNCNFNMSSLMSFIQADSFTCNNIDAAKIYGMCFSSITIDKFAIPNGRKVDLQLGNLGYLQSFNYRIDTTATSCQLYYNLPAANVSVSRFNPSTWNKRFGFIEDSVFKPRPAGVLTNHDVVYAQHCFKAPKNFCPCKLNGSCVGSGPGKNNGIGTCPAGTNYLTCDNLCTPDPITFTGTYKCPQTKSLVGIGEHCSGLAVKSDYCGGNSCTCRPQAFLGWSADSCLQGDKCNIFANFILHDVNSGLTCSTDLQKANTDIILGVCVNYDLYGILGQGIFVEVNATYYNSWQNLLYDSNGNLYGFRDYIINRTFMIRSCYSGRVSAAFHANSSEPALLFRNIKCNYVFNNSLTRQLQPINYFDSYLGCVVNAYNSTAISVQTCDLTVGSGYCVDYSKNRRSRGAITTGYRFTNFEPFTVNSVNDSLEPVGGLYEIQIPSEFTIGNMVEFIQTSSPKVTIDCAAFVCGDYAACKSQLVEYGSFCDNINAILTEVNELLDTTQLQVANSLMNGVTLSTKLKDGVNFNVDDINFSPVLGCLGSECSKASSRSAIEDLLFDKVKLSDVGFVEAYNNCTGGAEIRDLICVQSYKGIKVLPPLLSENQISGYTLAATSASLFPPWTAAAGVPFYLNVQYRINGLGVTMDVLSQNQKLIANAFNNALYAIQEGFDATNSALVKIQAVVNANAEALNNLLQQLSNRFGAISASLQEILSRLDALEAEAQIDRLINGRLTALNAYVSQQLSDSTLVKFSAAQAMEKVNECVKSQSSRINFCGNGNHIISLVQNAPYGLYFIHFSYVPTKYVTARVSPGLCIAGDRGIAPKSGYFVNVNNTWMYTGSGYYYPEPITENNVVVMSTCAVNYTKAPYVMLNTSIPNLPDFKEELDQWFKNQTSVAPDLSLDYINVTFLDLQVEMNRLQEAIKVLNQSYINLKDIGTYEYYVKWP

B1: rabbit monoclonal antibody 7G5 against the SARS-CoV-2 S1 (antibody, V domains shown)
VH: QEQLEESGGDLVKPGASLTLTCTASGFSFSSAYYMCWVRQAPGKGLEWIACIGVDSGGNSYYASWAKGRFTISTTSSTTVTLQMTSLTAADKATYFCTRSFSLWGPGTLVTISS
VL: RKWLTQTASSVSAAVGGTVTISCQASQSVYNNDNLAWFQQRPGQPPKLLIYLASNLASGVPPRFSGSGSGTQFTLTISDVQCDDAATYYCLGGYDCSNADCHAFGGGTEVVVKG
B2: rabbit monoclonal antibody 1D2 against the SARS-CoV-2 S1 (antibody, V domains shown)
VH: QSVEESGGRLVTPGTSLTLTCTVSGIDIETYWMSWVRQAPGKGLEWIAIITSHDHSGYANWAEGRFTISKTSTTVTLTITDLQPSDTGTYFCAKDVGHSTYDLWGPGTLVTVSS
VL: AAVLTQTPSPVSAAVGGTVTISCQSSESVLSNNRLSWYQQKPGQPPKLLIYAASTLASGVPSRFKGRGSGTQFTLTISDVQCDDAAMYVCAGAFSGSSDTRAFGGGTEVVVKG
B3: rabbit monoclonal antibody 1H1 against the SARS-CoV-2 S1 (antibody, V domains shown)
VH: QSLEESGGDLVKPGASLTLTCTASGFSFSSGYDMCWVRQAPGKGLEWIACIGTGSSGNIYYASWAKGRFTISKTSSTTVTLQMTSLTAADTATYFCARDDADYAGPDYFNLWGPGTLVTVSS
VL: DIVMTQTPASVSEPVGGTVTIKCQASESISNWLAWYQQKPGQPPKLLIYAAFTLASGVPSRFKGSGSGTQFTLTINGVECADAATYYCQQTYSSRDVDNVFGGGTEVVVKG
B4: rabbit monoclonal antibody 1A3 against the SARS-CoV-2 S1 (antibody, V domains shown)
VH: QSLEESGGRLVTPGTPLTLTCTVSGFSFSSYHMGWVRQAPGEGLEWIGTLIGIAGNTYYASWAKGRFSISKTSTTVDLKMTSPTTEDTATYWCARIVTATFEFWGPGTLVTVSS
VL: AQVLTQTPSPVSAAVGGTVTISCQASQSVNMNLLSWFQQKPGQPPKLLIYQASNLASGVSARFKGSGSGTQFTLTINEIQCDDAATYYCQGDMGGWMFPFGGGTEVVVTG
B5: rabbit monoclonal antibody 9A5 against the SARS-CoV-2 S1 (antibody, V domains shown)
VH: QSVEESGGRLVTPGTPLTLTCTVSGFSLSAYQMIWVRQTPGKGLEYIGIMHTGTSAYYANWAKGRFTISKTSSTTVDLKMTSPTTEDTATYFCGRNLNEGFTGAYPFNLWGPGTLVAVSS
VL: DVVMTQTPASVEAAVGGTVTIKCQASQSIGSNLAWYQKKPGQPPKLLIYQASNLASGVPSRFKGSGSGTQFTLTISDLECADAATYYCQMNYYISSSYTYTFGGGTEVVVKG

target: T3, SARS-CoV-2 Spike S1 protein (SARS-CoV-2, UniProt P0DTC2 16-685); test: not given

Row | Binder | Kd [nM] | koff [s⁻¹] | kon [M⁻¹ s⁻¹]
1 | B1 | 2.14 | 0.000261 | 122000
2 | B2 | 3.55 | 0.000259 | 72900
3 | B3 | 2.06 | 0.000273 | 133000
4 | B4 | 0.537 | 9.34e-05 | 174000
5 | B5 | 0.87 | 0.000115 | 132000

target: T1, HcoV-NL63 S protein; test: direct ELISA, OD450

Row | Binder | binding result
6 | B1 | no binding
7 | B2 | no binding
8 | B3 | no binding
9 | B4 | no binding
10 | B5 | no binding

target: T2, HcoV-OC43 S protein; test: direct ELISA, OD450

Row | Binder | binding result
11 | B1 | no binding
12 | B2 | no binding
13 | B3 | no binding
14 | B4 | no binding
15 | B5 | no binding

target: MERS-CoV Spike protein (MERS-CoV, UniProt K9N5Q8 18-1296); test: direct ELISA, OD450

Row | Binder | binding result
16 | B1 | no binding
17 | B3 | no binding
18 | B4 | no binding
19 | B5 | no binding

target: T4, RBD (receptor binding domain) of the SARS-CoV-2 S1 (SARS-CoV-2, UniProt P0DTC2 319-541); test: direct antigen ELISA, RBD coated, antibody titrated, anti-rabbit IgG-HRP
T4 construct: domain: RBD; also called RBD domain protein

Row | Binder | binding result
20 | B2 | no binding (tested: 1000 ng/ml)
21 | B4 | no binding (tested: 1000 ng/ml)

target: T3, SARS-CoV-2 Spike S1 protein; test: not given; remark: another data set of the same source

Row | Binder | EC50 (read off the curve) [µg/mL]
22 | B3 | ~0.04
